Legend:
[1] = target: T1, SARS-CoV-2 spike receptor-binding domain (2019-nCoV RBD-SD1, residues 319–566) (SARS-CoV-2, UniProt P0DTC2 319-566, chemically biotinylated with NHS-PEG4-Biotin for selection, ELISA and BLI); test: BLI
[2] = target: T1, SARS-CoV-2 spike receptor-binding …; test: BLI; remark: listed apart in the source

B1: Sb23-Fc (Sb23 fused to the Fc domain from human IgG) (Fc fusion)
chain: QVQLVESGGGLVQAGGSLRLSCAASGFPVESENMHWYRQAPGKEREWVAAIYSTGGWTLYADSVKGRFTISRDNAKNTVYLQMNSLKPEDTAVYYCAVQVGYWYEGQGTQVTVS
koff [1]: 7.1e-05 s⁻¹
Kd [2]: 0.225 nM

— paper PMC7642358 (2020)
